B1: LukED: S. aureus bicomponent pore-forming leukotoxin leukocidin E/D, LukE plus LukD subunits (protein)
chain 1: NTNIENIGDGAEVIKRTEDVSSKKWGVTQNVQFDFVKDKKYNKDALIVKMQGFINSRTSFSDVKGSGYELTKRMIWPFQYNIGLTTKDPNVSLINYLPKNKIETTDVGQTLGYNIGGNFQSAPSIGGNGSFNYSKTISYTQKSYVSEVDKQNSKSVKWGVKANEFVTPDGKKSAHDRYLFVQSPNGPTGSAREYFAPDNQLPPLVQSGFNPSFITTLSHEKGSSDTSEFEISYGRNLDITYATLFPRTGIYAERKHNAFVNRNFVVRYEVNWKTHEIKVKGHN
chain 2: AQHITPVSEKKVDDKITLYKTTATSDNDKLNISQILTFNFIKDKSYDKDTLVLKAAGNINSGYKKPNPKDYNYSQFYWGGKYNVSVSSESNDAVNVVDYAPKNQNEEFQVQQTLGYSYGGDINISNGLSGGLNGSKSFSETINYKQESYRTTIDRKTNHKSIGWGVEAHKIMNNGWGPYGRDSYDPTYGNELFLGGRQSSSNAGQNFLPTHQMPLLARGNFNPEFISVLSHKQNDTKKSKIKVTYQREMDRYTNQWNRLHWVGNNYKNQNTVTFTSTYEVDWQNHTVKLIGTDSKETNPGV
modifications: left off: small tags and cut ends
notes: S. aureus bicomponent pore-forming leukotoxin leukocidin E/D, LukE plus LukD subunits

What was measured:
PMNs = test: Ex vivo infection of PMNs with toxin-producing S. aureus strains; type: cell-based, human; details: multiplicity of infection of 10
Protocol: Ex vivo infection experiments. S. aureus strains containing either the pOS1-plukA-lukAs.s.-6×His vector construct containing either no toxin (empty), lukED or lukE^DR4D were subcultured for 4.5 hours, followed by normalization to 1×10^9 CFU per ml in RPMI+10% FBS. Cells were diluted 1:10 and 20 μl were added to 80 μl of media containing 2×10^5 PMNs seeded into 96-well plates. Infections were carried out for 3.5 hours at 37° C. with shaking at 180 RPM. 2 μg ml-1 of lysostaphin was added for 20 minutes at 37° C. with shaking at 180 RPM to kill all bacteria. Cells were centrifuged for 5 minutes at 1,500 RPM and 4° C., followed by fixing in FACS fixing buffer (PBS+2% FBS+2% paraformaldehyde+0.05% sodium azide). To analyze toxin mediated killing by flow cytometry, cellular depletion from gated live cells was evaluated. Percent cell death was calculated by comparing cells remaining in the live gate to that of Newman ΔΔΔΔ strain containing the empty pOS1-plukA modified empty vector (no toxin), which was set to 0% dead.

human PMNs [1] = test: Viability of PMNs challenged with a lethal dose of LukED in the presence of chemokines; type: cell-based; details: LukED 75 nM
[2] = system: murine peritoneal exudate cells (PMNs, CCR5^+ macrophages); test: Killing of murine peritoneal exudate cells (PEC) by toxins in vitro; type: cell-based, mouse; details: 300 nM
Protocol: Murine in vitro and in vivo experiments. To evaluate LukED-mediated killing of murine cells in vitro, C57BL/6 WT mice (Taconic) were injected intraperitoneally with 1×10^7 CFU of heatkilled S. aureus Newman ΔlukED. Twenty-four hours post injection, another dose of 1×10^7 CFU of heat-killed S. aureus Newman ΔlukED was injected as before. After an additional twenty-four hours, mice were sacrificed and immune cells were collected by peritoneal cavity lavage using 8 ml of PBS. Red blood cells were lysed using 2 ml ACK lysis buffer (Gibco) followed by resuspension of remaining peritoneal exudate cells in RPMI+10% FBS. Cells were incubated with PBS, LukED or LukE^DR4D (300 nM) and incubated for 30 minutes on ice. After incubation, the cells were washed three times with PBS then stained with the fixable viability dye eFluor-450, followed by cell surface staining with CD11b, B220, F480, CD3, Ly6G, CCR5 and CXCR2 antibodies. Cell viability of specific immune cell populations was subsequently analyzed on an LSRII flow cytometer (BD). FACS plots are representative of results obtained from cells isolated from at least 3 independent animals.

CXCR2 = target: T1, CXCR2 (Homo sapiens, UniProt P25025); test: Toxin susceptibility of HEK293T cells transfected with chemokine receptor CXCR2; type: cell-based; design: expressed in transfected cells; host or cells: HEK293T; details: viability (600 nM) or ethidium bromide permeability (1 hr; HlgAB/HlgCB 20 μg/ml)
T1 sequence (P25025 1-360): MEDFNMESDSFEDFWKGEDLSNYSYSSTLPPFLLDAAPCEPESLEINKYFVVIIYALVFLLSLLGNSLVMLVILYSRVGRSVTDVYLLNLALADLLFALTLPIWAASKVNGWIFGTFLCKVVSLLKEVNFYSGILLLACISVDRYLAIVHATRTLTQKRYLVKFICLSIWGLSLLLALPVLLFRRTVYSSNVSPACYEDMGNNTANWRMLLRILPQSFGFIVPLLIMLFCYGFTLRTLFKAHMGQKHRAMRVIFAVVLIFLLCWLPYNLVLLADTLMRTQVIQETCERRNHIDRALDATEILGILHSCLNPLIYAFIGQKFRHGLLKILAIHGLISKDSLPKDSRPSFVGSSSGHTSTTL
Protocol: (§1) Cell culture conditions and viral transductions. Primary human cells and THP-1 were cultured at 37° C. with 5% CO2 in RPMI supplemented with 10% fetal bovine serum (FBS; Atlanta Biologicals) and penicillin (100 U ml-1) and streptomycin (0.1 mg ml-1) (Mediatech) unless stated otherwise. Overexpression and lentiviral-based knockdown of Cxcr2 or non-target shRNA were performed as previously described (Wan et al., “Cytokine Signals Through PI-3 Kinase Pathway Modulate Th17 Cytokine Production by CCR6+ Human Memory T Cells,” J. Exp. Med. 208:1875-1887 (2011), which is hereby incorporated by reference in its entirety) and maintained in 1.3 μg ml-1 puromycin. HEK293T cells were cultured at 37° C. with 5% CO2 in DMEM (Cellgro) and supplemented as described above.
(§2) Leukotoxin treatments. HEK293T cells, THP-1, primary human PBMCs and primary murine peritoneal exudate cells were treated with LukE, LukD or LukED as previously described (Alonzo et al., “CCR5 is a Receptor for Staphylococcus aureus Leukotoxin ED,” Nature 493:51-55 (2013), which is hereby incorporated by reference in its entirety). In all experiments 1-2×10^5 cells were seeded into 96-well plates. […]

THP-1 cells = test: Viability of THP-1 cells transduced with non-target or Cxcr2 shRNA treated with LukED; type: cell-based, human; details: Cxcr2 shRNA versus non-target shRNA
Protocol: as §1, §2

[3] = system: PBMC subsets (NK cells, CD8^+ T cells, monocytes); test: Susceptibility of PBMC subsets to toxins, flow cytometry; type: cell-based, human
Protocol: (§3) Isolation of PBMCs. Blood was obtained as buffy coats with the consent of de-identified donors from the New York Blood Center. PBMCs were isolated from blood using a Ficoll-Paque PLUS gradient (GE Amersham) and gated on CCR5^+ cells, followed by anti-CD3 and CD14 cell surface staining for lymphocyte and monocyte populations. Cells were then incubated with LukED (75 nM) in the presence or absence of maraviroc (MVC, 100 ng ml-1).
(§4) FACS analysis. Cell staining was performed as described previously (Alonzo et al., “CCR5 is a Receptor for Staphylococcus aureus Leukotoxin ED,” Nature 493:51-55 (2013), which is hereby incorporated by reference in its entirety). FACS data were obtained using FACSDiva software on a LSRII flow cytometer (BD Biosciences). Data was analyzed using FlowJo software (Treestar).
as §2

human PMNs [4] = test: Viability of primary human neutrophils (PMNs) treated with leukotoxins; type: cell-based
human RBCs = test: LukED-mediated lysis of human red blood cells; type: cell-based; details: RBCs from nine donors, DARC+ and DARC−
monocytes within PBMCs = test: LukED treatment of human PBMCs, CD14/CD3 flow cytometry; type: cell-based; details: PBMCs from a Δ32Ccr5 donor; LukED 75 nM
Protocol: as §3
CCR5 inhibitor and ligands. Maraviroc was obtained through the AIDS Research and Reference Reagent Program, Division of AIDS (NIAID, NIH) and used at a final concentration of 100 ng ml-1.
as §4, §2

mice = test: Survival of mice upon bloodstream (intravenous) administration of purified toxin; type: in vivo, mouse; details: intravenous injection, 10 μg of each subunit, n=5
CXCR1 = target: T2, CXCR1 (Homo sapiens, UniProt P25024); test: Toxin susceptibility of HEK293T cells transfected with chemokine receptor CXCR1; type: cell-based; design: expressed in transfected cells; host or cells: HEK293T; details: viability (600 nM) or ethidium bromide permeability (1 hr; HlgAB/HlgCB 20 μg/ml)
T2 sequence (P25024 1-350): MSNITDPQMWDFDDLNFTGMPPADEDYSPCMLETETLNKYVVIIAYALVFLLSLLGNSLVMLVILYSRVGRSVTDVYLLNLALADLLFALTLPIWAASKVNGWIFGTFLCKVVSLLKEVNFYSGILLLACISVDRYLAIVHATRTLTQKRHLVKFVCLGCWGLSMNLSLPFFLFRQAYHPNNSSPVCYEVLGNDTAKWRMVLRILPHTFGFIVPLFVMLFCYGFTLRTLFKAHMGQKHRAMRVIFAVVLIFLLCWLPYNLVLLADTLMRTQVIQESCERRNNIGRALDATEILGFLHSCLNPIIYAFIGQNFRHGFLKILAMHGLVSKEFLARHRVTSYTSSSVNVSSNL

DARC = target: T3, DARC (Homo sapiens, UniProt Q16570); test: Toxin susceptibility of HEK293T cells transfected with DARC; type: cell-based; details: ethidium bromide permeability (1 hr; HlgAB/HlgCB 20 μg/ml)
T3 construct: expressed in transfected cells; host or cells: HEK293T
T3 sequence (Q16570 1-336): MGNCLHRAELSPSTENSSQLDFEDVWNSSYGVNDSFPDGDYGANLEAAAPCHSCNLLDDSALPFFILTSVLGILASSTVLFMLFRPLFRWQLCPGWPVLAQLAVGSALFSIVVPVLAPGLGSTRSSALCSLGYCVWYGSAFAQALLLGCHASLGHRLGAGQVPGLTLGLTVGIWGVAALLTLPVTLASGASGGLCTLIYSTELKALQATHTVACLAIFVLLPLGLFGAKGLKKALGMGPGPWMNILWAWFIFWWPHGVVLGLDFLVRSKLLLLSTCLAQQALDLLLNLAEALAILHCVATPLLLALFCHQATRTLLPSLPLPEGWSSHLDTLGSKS

CCR5 = target: T4, CCR5 (Homo sapiens, UniProt P51681); test: Toxin susceptibility of HEK293T cells transfected with CCR5; type: cell-based; details: ethidium bromide permeability (1 hr; HlgAB 20 μg/ml)
T4 construct: expressed in transfected cells; host or cells: HEK293T
T4 sequence (P51681 whole entry): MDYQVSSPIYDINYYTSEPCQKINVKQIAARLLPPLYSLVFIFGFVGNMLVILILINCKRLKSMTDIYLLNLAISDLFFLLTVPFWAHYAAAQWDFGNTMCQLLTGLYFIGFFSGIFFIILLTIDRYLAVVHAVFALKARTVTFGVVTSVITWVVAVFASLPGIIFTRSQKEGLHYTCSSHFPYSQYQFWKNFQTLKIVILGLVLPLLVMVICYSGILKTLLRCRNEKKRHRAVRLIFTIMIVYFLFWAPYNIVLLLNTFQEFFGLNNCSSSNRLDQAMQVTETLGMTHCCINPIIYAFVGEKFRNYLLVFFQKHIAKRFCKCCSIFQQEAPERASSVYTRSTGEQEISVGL

Molecule | inhibition of cytotoxic activity of the LukED-producing S. aureus strain on PMNs (PMNs) | prevention of LukED-mediated death of PMNs (human PMNs [1]) | susceptibility of murine CCR5+ macrophages [2] | murine PMNs killed ([2]; 30 minutes on ice) [%] | susceptibility of CXCR2-transfected HEK293T cells to toxin (CXCR2) | LukED killing of THP-1 cells after CXCR2 knockdown (THP-1 cells) | cytotoxicity to NK cells and CD8+ T cells in PBMCs [3] | cytotoxic activity against hPMNs (human PMNs [4]; LukE or alanine mutant mixed equimolar with LukD, n=8 donors) | susceptibility of PMNs to toxin (viability) (human PMNs [4]; PMNs from Ccr5+/+ and Δ32Ccr5 donors, 75 nM) | hemolysis of human RBCs (human RBCs) | LukED targeting of monocytes (monocytes within PBMCs) | lethality in mice (mice) | susceptibility of CXCR1-transfected HEK293T cells to toxin (CXCR1) | susceptibility of DARC-transfected HEK293T cells to toxin (DARC) | susceptibility of CCR5-transfected HEK293T cells to toxin (CCR5)
CXCL8: chemokine ligand of CXCR1/CXCR2, obtained from BioLegend | inhibited by CXCL8 | prevented LukED-mediated death of PMNs |  |  |  |  |  |  |  |  |  |  |  |  | 
B1 |  |  | equally susceptible to both LukED and LukE^DR4D | ~79 | sufficient to render HEK293T cells susceptible | rendered cells resistant to LukED killing | cytotoxic to the majority of NK cells and a subset of CD8^+ T cells | targeted and killed the hPMNs | equally susceptible to LukED | some donors were susceptible to LukED hemolysis while others were not | targeted in a LukED-mediated, CCR5-independent manner | rapid death | sufficient to render HEK293T cells susceptible | sufficient to render HEK293T cells susceptible | targets CCR5, CXCR1, CXCR2, and DARC to kill host cells
